In publication PMC11589706, “Cryo-EM structure of PML RBCC dimer reveals CC-mediated octopus-like nuclear body assembly mechanism” (Cell Discovery, 2024):

B1: full-length PML L240R, mammalian two-hybrid fusions (natural protein, human, UniProt P29590-5 1-633, looked up)
chain: MEPAPARSPRPQQDPARPQEPTMPPPETPSEGRQPSPSPSPTERAPASEEEFQFLRCQQCQAEAKCPKLLPCLHTLCSGCLEASGMQCPICQAPWPLGADTPALDNVFFESLQRRLSVYRQIVDAQAVCTRCKESADFWCFECEQLLCAKCFEAHQWFLKHEARPLAELRNQSVREFLDGTRKTNNIFCSNPNHRTPTLTSIYCRGCSKPLCCSCALLDSSHSELKCDISAEIQQRQEERDAMTQALQEQDSAFGAVHAQMHAAVGQLGRARAETEELIRERVRQVVAHVRAQERELLEAVDARYQRDYEEMASRLGRLDAVLQRIRTGSALVQRMKCYASDQEVLDMHGFLRQALCRLRQEEPQSLQAAVRTDGFDEFKVRLQDLSSCITQGKDAAVSKKASPEAASTPRDPIDVDLPEEAERVKAQVQALGLAEAQPMAVVQSVPGAHPVPVYAFSIKGPSYGEDVSNTTTAQKRKCSQTQCPRKVIKMESEEGKEARLARSSPEQPRPSTSKAVSPPHLDGPPSPRSPVIGSEVFLPNSNHVASGAGEAEERVVVISSSEDSDAENSSSRELDDSSSESSDLQLEGPSTLRVLDENLADPQAEDRPLVFFDLKIDNESGFSWGYPHPFLI
notes: PML (TRIM19) isoform IV, full length, L240R; source: HeLa Pml-/- cells, transfected, mammalian two-hybrid fusion
B2: full-length PML L178R, mammalian two-hybrid fusions (natural protein, human, UniProt P29590-5 1-633, looked up)
chain: MEPAPARSPRPQQDPARPQEPTMPPPETPSEGRQPSPSPSPTERAPASEEEFQFLRCQQCQAEAKCPKLLPCLHTLCSGCLEASGMQCPICQAPWPLGADTPALDNVFFESLQRRLSVYRQIVDAQAVCTRCKESADFWCFECEQLLCAKCFEAHQWFLKHEARPLAELRNQSVREFRDGTRKTNNIFCSNPNHRTPTLTSIYCRGCSKPLCCSCALLDSSHSELKCDISAEIQQRQEELDAMTQALQEQDSAFGAVHAQMHAAVGQLGRARAETEELIRERVRQVVAHVRAQERELLEAVDARYQRDYEEMASRLGRLDAVLQRIRTGSALVQRMKCYASDQEVLDMHGFLRQALCRLRQEEPQSLQAAVRTDGFDEFKVRLQDLSSCITQGKDAAVSKKASPEAASTPRDPIDVDLPEEAERVKAQVQALGLAEAQPMAVVQSVPGAHPVPVYAFSIKGPSYGEDVSNTTTAQKRKCSQTQCPRKVIKMESEEGKEARLARSSPEQPRPSTSKAVSPPHLDGPPSPRSPVIGSEVFLPNSNHVASGAGEAEERVVVISSSEDSDAENSSSRELDDSSSESSDLQLEGPSTLRVLDENLADPQAEDRPLVFFDLKIDNESGFSWGYPHPFLI
notes: PML (TRIM19) isoform IV, full length, L178R; source: HeLa Pml-/- cells, transfected, mammalian two-hybrid fusion
B3: full-length PML F177R, mammalian two-hybrid fusions (natural protein, human, UniProt P29590-5 1-633, looked up)
chain: MEPAPARSPRPQQDPARPQEPTMPPPETPSEGRQPSPSPSPTERAPASEEEFQFLRCQQCQAEAKCPKLLPCLHTLCSGCLEASGMQCPICQAPWPLGADTPALDNVFFESLQRRLSVYRQIVDAQAVCTRCKESADFWCFECEQLLCAKCFEAHQWFLKHEARPLAELRNQSVRERLDGTRKTNNIFCSNPNHRTPTLTSIYCRGCSKPLCCSCALLDSSHSELKCDISAEIQQRQEELDAMTQALQEQDSAFGAVHAQMHAAVGQLGRARAETEELIRERVRQVVAHVRAQERELLEAVDARYQRDYEEMASRLGRLDAVLQRIRTGSALVQRMKCYASDQEVLDMHGFLRQALCRLRQEEPQSLQAAVRTDGFDEFKVRLQDLSSCITQGKDAAVSKKASPEAASTPRDPIDVDLPEEAERVKAQVQALGLAEAQPMAVVQSVPGAHPVPVYAFSIKGPSYGEDVSNTTTAQKRKCSQTQCPRKVIKMESEEGKEARLARSSPEQPRPSTSKAVSPPHLDGPPSPRSPVIGSEVFLPNSNHVASGAGEAEERVVVISSSEDSDAENSSSRELDDSSSESSDLQLEGPSTLRVLDENLADPQAEDRPLVFFDLKIDNESGFSWGYPHPFLI
notes: PML (TRIM19) isoform IV, full length, F177R; source: HeLa Pml-/- cells, transfected, mammalian two-hybrid fusion
B4: full-length PML V123R/L178R, mammalian two-hybrid fusions (natural protein, human, UniProt P29590-5 1-633, looked up)
chain: MEPAPARSPRPQQDPARPQEPTMPPPETPSEGRQPSPSPSPTERAPASEEEFQFLRCQQCQAEAKCPKLLPCLHTLCSGCLEASGMQCPICQAPWPLGADTPALDNVFFESLQRRLSVYRQIRDAQAVCTRCKESADFWCFECEQLLCAKCFEAHQWFLKHEARPLAELRNQSVREFRDGTRKTNNIFCSNPNHRTPTLTSIYCRGCSKPLCCSCALLDSSHSELKCDISAEIQQRQEELDAMTQALQEQDSAFGAVHAQMHAAVGQLGRARAETEELIRERVRQVVAHVRAQERELLEAVDARYQRDYEEMASRLGRLDAVLQRIRTGSALVQRMKCYASDQEVLDMHGFLRQALCRLRQEEPQSLQAAVRTDGFDEFKVRLQDLSSCITQGKDAAVSKKASPEAASTPRDPIDVDLPEEAERVKAQVQALGLAEAQPMAVVQSVPGAHPVPVYAFSIKGPSYGEDVSNTTTAQKRKCSQTQCPRKVIKMESEEGKEARLARSSPEQPRPSTSKAVSPPHLDGPPSPRSPVIGSEVFLPNSNHVASGAGEAEERVVVISSSEDSDAENSSSRELDDSSSESSDLQLEGPSTLRVLDENLADPQAEDRPLVFFDLKIDNESGFSWGYPHPFLI
notes: PML (TRIM19) isoform IV, full length, V123R and L178R; source: HeLa Pml-/- cells, transfected, mammalian two-hybrid fusion
B5: full-length PML L247R, mammalian two-hybrid fusions (natural protein, human, UniProt P29590-5 1-633, looked up)
chain: MEPAPARSPRPQQDPARPQEPTMPPPETPSEGRQPSPSPSPTERAPASEEEFQFLRCQQCQAEAKCPKLLPCLHTLCSGCLEASGMQCPICQAPWPLGADTPALDNVFFESLQRRLSVYRQIVDAQAVCTRCKESADFWCFECEQLLCAKCFEAHQWFLKHEARPLAELRNQSVREFLDGTRKTNNIFCSNPNHRTPTLTSIYCRGCSKPLCCSCALLDSSHSELKCDISAEIQQRQEELDAMTQARQEQDSAFGAVHAQMHAAVGQLGRARAETEELIRERVRQVVAHVRAQERELLEAVDARYQRDYEEMASRLGRLDAVLQRIRTGSALVQRMKCYASDQEVLDMHGFLRQALCRLRQEEPQSLQAAVRTDGFDEFKVRLQDLSSCITQGKDAAVSKKASPEAASTPRDPIDVDLPEEAERVKAQVQALGLAEAQPMAVVQSVPGAHPVPVYAFSIKGPSYGEDVSNTTTAQKRKCSQTQCPRKVIKMESEEGKEARLARSSPEQPRPSTSKAVSPPHLDGPPSPRSPVIGSEVFLPNSNHVASGAGEAEERVVVISSSEDSDAENSSSRELDDSSSESSDLQLEGPSTLRVLDENLADPQAEDRPLVFFDLKIDNESGFSWGYPHPFLI
notes: PML (TRIM19) isoform IV, full length, L247R; source: HeLa Pml-/- cells, transfected, mammalian two-hybrid fusion
B6: full-length PML V123R, mammalian two-hybrid fusions (natural protein, human, UniProt P29590-5 1-633, looked up)
chain: MEPAPARSPRPQQDPARPQEPTMPPPETPSEGRQPSPSPSPTERAPASEEEFQFLRCQQCQAEAKCPKLLPCLHTLCSGCLEASGMQCPICQAPWPLGADTPALDNVFFESLQRRLSVYRQIRDAQAVCTRCKESADFWCFECEQLLCAKCFEAHQWFLKHEARPLAELRNQSVREFLDGTRKTNNIFCSNPNHRTPTLTSIYCRGCSKPLCCSCALLDSSHSELKCDISAEIQQRQEELDAMTQALQEQDSAFGAVHAQMHAAVGQLGRARAETEELIRERVRQVVAHVRAQERELLEAVDARYQRDYEEMASRLGRLDAVLQRIRTGSALVQRMKCYASDQEVLDMHGFLRQALCRLRQEEPQSLQAAVRTDGFDEFKVRLQDLSSCITQGKDAAVSKKASPEAASTPRDPIDVDLPEEAERVKAQVQALGLAEAQPMAVVQSVPGAHPVPVYAFSIKGPSYGEDVSNTTTAQKRKCSQTQCPRKVIKMESEEGKEARLARSSPEQPRPSTSKAVSPPHLDGPPSPRSPVIGSEVFLPNSNHVASGAGEAEERVVVISSSEDSDAENSSSRELDDSSSESSDLQLEGPSTLRVLDENLADPQAEDRPLVFFDLKIDNESGFSWGYPHPFLI
notes: PML (TRIM19) isoform IV, full length, V123R; source: HeLa Pml-/- cells, transfected, mammalian two-hybrid fusion
B7: full-length PML V123R/F177R, mammalian two-hybrid fusions (natural protein, human, UniProt P29590-5 1-633, looked up)
chain: MEPAPARSPRPQQDPARPQEPTMPPPETPSEGRQPSPSPSPTERAPASEEEFQFLRCQQCQAEAKCPKLLPCLHTLCSGCLEASGMQCPICQAPWPLGADTPALDNVFFESLQRRLSVYRQIRDAQAVCTRCKESADFWCFECEQLLCAKCFEAHQWFLKHEARPLAELRNQSVRERLDGTRKTNNIFCSNPNHRTPTLTSIYCRGCSKPLCCSCALLDSSHSELKCDISAEIQQRQEELDAMTQALQEQDSAFGAVHAQMHAAVGQLGRARAETEELIRERVRQVVAHVRAQERELLEAVDARYQRDYEEMASRLGRLDAVLQRIRTGSALVQRMKCYASDQEVLDMHGFLRQALCRLRQEEPQSLQAAVRTDGFDEFKVRLQDLSSCITQGKDAAVSKKASPEAASTPRDPIDVDLPEEAERVKAQVQALGLAEAQPMAVVQSVPGAHPVPVYAFSIKGPSYGEDVSNTTTAQKRKCSQTQCPRKVIKMESEEGKEARLARSSPEQPRPSTSKAVSPPHLDGPPSPRSPVIGSEVFLPNSNHVASGAGEAEERVVVISSSEDSDAENSSSRELDDSSSESSDLQLEGPSTLRVLDENLADPQAEDRPLVFFDLKIDNESGFSWGYPHPFLI
notes: PML (TRIM19) isoform IV, full length, V123R and F177R; source: HeLa Pml-/- cells, transfected, mammalian two-hybrid fusion
B8: full-length PML I279R, mammalian two-hybrid fusions (natural protein, human, UniProt P29590-5 1-633, looked up)
chain: MEPAPARSPRPQQDPARPQEPTMPPPETPSEGRQPSPSPSPTERAPASEEEFQFLRCQQCQAEAKCPKLLPCLHTLCSGCLEASGMQCPICQAPWPLGADTPALDNVFFESLQRRLSVYRQIVDAQAVCTRCKESADFWCFECEQLLCAKCFEAHQWFLKHEARPLAELRNQSVREFLDGTRKTNNIFCSNPNHRTPTLTSIYCRGCSKPLCCSCALLDSSHSELKCDISAEIQQRQEELDAMTQALQEQDSAFGAVHAQMHAAVGQLGRARAETEELRRERVRQVVAHVRAQERELLEAVDARYQRDYEEMASRLGRLDAVLQRIRTGSALVQRMKCYASDQEVLDMHGFLRQALCRLRQEEPQSLQAAVRTDGFDEFKVRLQDLSSCITQGKDAAVSKKASPEAASTPRDPIDVDLPEEAERVKAQVQALGLAEAQPMAVVQSVPGAHPVPVYAFSIKGPSYGEDVSNTTTAQKRKCSQTQCPRKVIKMESEEGKEARLARSSPEQPRPSTSKAVSPPHLDGPPSPRSPVIGSEVFLPNSNHVASGAGEAEERVVVISSSEDSDAENSSSRELDDSSSESSDLQLEGPSTLRVLDENLADPQAEDRPLVFFDLKIDNESGFSWGYPHPFLI
notes: PML (TRIM19) isoform IV, full length, I279R; source: HeLa Pml-/- cells, transfected, mammalian two-hybrid fusion
B9: MBP-PML_(46–323) (domain or fragment, human, UniProt P29590 46-323, looked up)
chain: PASEEEFQFLRCQQCQAEAKCPKLLPCLHTLCSGCLEASGMQCPICQAPWPLGADTPALDNVFFESLQRRLSVYRQIVDAQAVCTRCKESADFWCFECEQLLCAKCFEAHQWFLKHEARPLAELRNQSVREFLDGTRKTNNIFCSNPNHRTPTLTSIYCRGCSKPLCCSCALLDSSHSELKCDISAEIQQRQEELDAMTQALQEQDSAFGAVHAQMHAAVGQLGRARAETEELIRERVRQVVAHVRAQERELLEAVDARYQRDYEEMASRLGRLDAVL
notes: PML (TRIM19), human, residues 46-323; source: E. coli BL21(DE3), purified; not shown: MBP, N-terminal, kept
B10: MBP-PML_(46–287) (domain or fragment, human, UniProt P29590 46-287, looked up)
chain: PASEEEFQFLRCQQCQAEAKCPKLLPCLHTLCSGCLEASGMQCPICQAPWPLGADTPALDNVFFESLQRRLSVYRQIVDAQAVCTRCKESADFWCFECEQLLCAKCFEAHQWFLKHEARPLAELRNQSVREFLDGTRKTNNIFCSNPNHRTPTLTSIYCRGCSKPLCCSCALLDSSHSELKCDISAEIQQRQEELDAMTQALQEQDSAFGAVHAQMHAAVGQLGRARAETEELIRERVRQVV
notes: PML (TRIM19), human, residues 46-287; source: E. coli BL21(DE3), purified; not shown: MBP, N-terminal, kept

Target: the molecule itself
Experiment: two-hybrid; CheckMate mammalian two-hybrid (Promega) in HeLa Pml-/- cells; pG5-luc, pBIND-PML and pACT-PML at 1:1:1; dual-luciferase read-out 24 h after transfection; normalised to pACT vector:pBIND-PML = 1

Going from B1 to B2, the “percent reduction of PML self-interaction (relative luciferase activity) compared to control” value falls from 83.9% to 44.9%.

Compared with B3, B4 is lower in “percent reduction of PML self-interaction (relative luciferase activity) compared to control” value: 45.1% for the first, 33.1% for the second.

First: B5
Second: B6
The “percent reduction of PML self-interaction (relative luciferase activity) compared to control” value of the first is higher: 75.8% for the first, 18.5% for the second.

Compared with B7, B8 is higher in “percent reduction of PML self-interaction (relative luciferase activity) compared to control” value: 39.1% for the first, 73.7% for the second.

Target: the molecule itself
Experiment: SEC; analytical size exclusion on Superdex 200 Increase 10/300 GL in 20 mM HEPES, pH 7.4, 100 mM NaCl, 4% glycerol; all truncations N-terminally fused to MBP

B9: binds.
B10: binds.
